Source: PMC8602292, “Acyl carrier protein promotes MukBEF action in Escherichia coli chromosome organization-segregation” (Nature Communications, 2021)
Where a chain is given by its changes, count along the chain named. Names and notes keep the numbering of the source.

B1: MukB (wild type, MukB-His) (natural protein, Escherichia coli, UniProt P22523 1-1486, looked up)
chain: MIERGKFRSLTLINWNGFFARTFDLDELVTTLSGGNGAGKSTTMAAFVTALIPDLTLLHFRNTTEAGATSGSRDKGLHGKLKAGVCYSMLDTINSRHQRVVVGVRLQQVAGRDRKVDIKPFAIQGLPMSVQPTQLVTETLNERQARVLPLNELKDKLEAMEGVQFKQFNSITDYHSLMFDLGIIARRLRSASDRSKFYRLIEASLYGGISSAITRSLRDYLLPENSGVRKAFQDMEAALRENRMTLEAIRVTQSDRDLFKHLISEATNYVAADYMRHANERRVHLDKALEFRRELHTSRQQLAAEQYKHVDMARELAEHNGAEGDLEADYQAASDHLNLVQTALRQQEKIERYEADLDELQIRLEEQNEVVAEAIERQQENEARAEAAELEVDELKSQLADYQQALDVQQTRAIQYNQAIAALNRAKELCHLPDLTADCAAEWLETFQAKELEATEKMLSLEQKMSMAQTAHSQFEQAYQLVVAINGPLARNEAWDVARELLREGVDQRHLAEQVQPLRMRLSELEQRLREQQEAERLLADFCKRQGKNFDIDELEALHQELEARIASLSDSVSNAREERMALRQEQEQLQSRIQSLMQRAPVWLAAQNSLNQLSEQCGEEFTSSQDVTEYLQQLLEREREAIVERDEVGARKNAVDEEIERLSQPGGSEDQRLNALAERFGGVLLSEIYDDVSLEDAPYFSALYGPSRHAIVVPDLSQVTEHLEGLTDCPEDLYLIEGDPQSFDDSVFSVDELEKAVVVKIADRQWRYSRFPEVPLFGRAARESRIESLHAEREVLSERFATLSFDVQKTQRLHQAFSRFIGSHLAVAFESDPEAEIRQLNSRRVELERALSNHENDNQQQRIQFEQAKEGVTALNRILPRLNLLADDSLADRVDEIRERLDEAQEAARFVQQFGNQLAKLEPIVSVLQSDPEQFEQLKEDYAYSQQMQRDARQQAFALTEVVQRRAHFSYSDSAEMLSGNSDLNEKLRERLEQAEAERTRAREALRGHAAQLSQYNQVLASLKSSYDTKKELLNDLQRELQDIGVRADSGAEERARIRRDELHAQLSNNRSRRNQLEKALTFCEAEMDNLTRKLRKLERDYFEMREQVVTAKAGWCAVMRMVKDNGVERRLHRRELAYLSADDLRSMSDKALGALRLAVADNEHLRDVLRMSEDPKRPERKIQFFVAVYQHLRERIRQDIIRTDDPVEAIEQMEIELSRLTEELTSREQKLAISSRSVANIIRKTIQREQNRIRMLNQGLQNVSFGQVNSVRLNVNVRETHAMLLDVLSEQHEQHQDLFNSNRLTFSEALAKLYQRLNPQIDMGQRTPQTIGEELLDYRNYLEMEVEVNRGSDGWLRAESGALSTGEAIGTGMSILVMVVQSWEDESRRLRGKDISPCRLLFLDEAARLDARSIATLFELCERLQMQLIIAAPENISPEKGTTYKLVRKVFQNTEHVHVVGLRGFAPQLPETLPGTDEAPSQAS
notes: MukB, the SMC protein of Escherichia coli MukBEF; wild type; The end of the tag is read from the printed name 'MukB-His'; The same construct was used with co-purified AcpP or depleted of AcpP by an extended salt gradient on heparin; also called WT MukB; AcpP-depleted MukB; source: E. coli C3013I (NEB), pET vector, purified (TALON, HiTrap Heparin, Superdex 200); not shown: His tag, C-terminal, kept

Key:
[1] = biological target: T1, MukB^KRK (K1114E, R1122E and K1125E) (Escherichia coli, UniProt P22523 1-1486, K1114E | R1122E | K1125E)
T1 construct: E. coli MukB, triple charge-reversed mutant; source: E. coli FL01 (mukB 3xFLAG C3013I), purified (TALON, HiTrap Heparin, Superdex 200); not shown: His tag, C-terminal, kept
T1 sequence (looked up): B1 chain with K1114E, R1122E, K1125E

[2] = biological target: B1
[3] = biological target: MukB^KK (K1114E and K1125E) (Escherichia coli) (UniProt P22523)
[4] = biological target: MukB^N (MukB Neck) (Escherichia coli); assay: native MS; MukB^N or MukB^HN with co-purified AcpP; 200 mM ammonium acetate pH 8.0
[5] = biological target: MukB^HN (MukB Head-Neck) (Escherichia coli); assay: as above
[6] = biological target: MukB (wild type, MukB-His) (Escherichia coli) (UniProt P22523)
[7] = biological target: the molecule itself; assay: native MS; mixtures of MukB, MukE, MukF and AcpP at various concentrations of MukB; 200 mM ammonium acetate pH 8.0

“Acyl Carrier Protein (AcpP), recombinant (from UniProt P0A6A8 1-78) (natural protein)” showed an ATPase activity with MukEF against increasing AcpP (up to 100 times excess, 50 μM) (ATP molecules/MukB2/min) [1] of 7.6, an ATPase activity of AcpP-depleted MukB with MukF, without and with added recombinant AcpP (ATP molecules/MukB2/min) [2] of 29 and an ATPase activity with MukEF against increasing AcpP (up to 50 μM) (% of WT ATPase activity) [3] of 60.

In the case of “Acyl Carrier Protein (AcpP), native, co-purified from the E. coli host (from UniProt P0A6A8 1-78) (natural protein)”, the stoichiometry N [4] is reported as 1, the stoichiometry N [5] is reported as 1 and the ATPase activity of MukBF co-purified with AcpP (ATP molecules/MukB2/min) [6] is reported as 27.2.

MukB^N (MukB Neck) (domain or fragment) showed a stoichiometry N [4] of 2.

B1: binds [7].
